biological target: myelin basic protein (MBP) (Sigma)
Sequence (P02687 whole entry): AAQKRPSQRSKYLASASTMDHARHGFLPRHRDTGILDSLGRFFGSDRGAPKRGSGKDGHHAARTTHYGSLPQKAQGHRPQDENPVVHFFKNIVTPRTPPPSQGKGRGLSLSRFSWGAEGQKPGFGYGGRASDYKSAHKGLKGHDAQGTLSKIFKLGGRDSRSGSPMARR

Protein | kinase activity (incorporation of phosphate in MBP, 32P, P81 paper, scintillation counting)
recombinant full-length human NAK protein with hexa His and myc epitope tags (from pcDNA3.1.NAK-Hm, expressed in HEK293 cells) (protein) MASDSPARSLDEIDLSALRDPAGIFELVELVGNGTYGQVYKGRHVKTGQLAAIKVMDVTGDEEEEIKQEINMLKKYSHHRNIATYYGAFIKKNPPGMDDQLWLVMEFCGAGSVTDLIKNTKGNTLKEEWIAYICREILRGLSHLHQHKVIHRDIKGQNVLLTENAEVKLVDFGVSAQLDRTVGRRNTFIGTPYWMAPEVIACDENPDATYDFKSDLWSLGITAIEMAEGAPPLCDMHPMRALFLIPRNPAPRLKSKKWSKKFQSFIESCLVKNHSQRPATEQLMKHPFIRDQPNERQVRIQLKDHIDRTKKKRGEKDETEYEYSGSEEEEEENDSGEPSSILNLPGESTLRRDFLRLQLANKERSEALRRQQLEQQQRENEEHKRQLLAERQKRIEEQKEQRRRLEEQQRREKELRKQQEREQRRHYEEQMRREEERRRAEHEQEYIRRQLEEEQRQLEILQQQLLHEQALLLEYKRKQLEEQRQAERLQRQLKQERDYLVSLQHQRQEQRPVEKKPLYHYKEGMSPSEKPAWAKEVEERSRLNRQSSPAMPHKVANRISDPNLPPRSESFSISGVQPARTPPMLRPVDPQIPHLVAVKSQGPALTASQSVHEQPTKGLSGFQEALNVTSHRVEMPRQNSDPTSENPPLPTRIEKFDRSSWLRQEEDIPPKVPQRTTSISPALARKNSPGNGSALGPRLGSQPIRASNPDLRRTEPILESPLQRTSSGSSSSSSTPSSQPSSQGGSQPGSQAGSSERTRVRANSKSEGSPVLPHEPAKVKPEESRDITRPSRPASYKKAIDEDLTALAKELRELRIEETNRPMKKVTDYSSSSEESESSEEEEEDGESETHDGTVAVSDIPRLIPTGAPGSNEQYNVGMVGTHGLETSHADSFSGSISREGTLMIRETSGEKKRSGHSDSNGFAGHINLPDLVQQSHSPAGTPTEGLGRVSTHSQEMDSGTEYGMGSSTKASFTPFVDPRVYQTSPTDEDEEDEESSAAALFTSELLRQEQAKLNEARKISVVNVNPTNIRPHSDTPEIRKYKKRFNSEILCAALWGVNLLVGTENGLMLLDRSGQGKVYNLINRRRFQQMDVLEGLNVLVTISGKKNKLRVYYLSWLRNRILHNDPEVEKKQGWITVGDLEGCIHYKVVKYERIKFLVIALKNAVEIYAWAPKPYHKFMAFKSFADLQHKPLLVDLTVEEGQRLKVIFGSHTGFHVIDVDSGNSYDIYIPSHIQGNITPHAIVILPKTDGMEMLVCYEDEGVYVNTYGRITKDVVLQWGEMPTSVAYIHSNQIMGWGEKAIEIRSVETGHLDGVFMHKRAQRLKFLCERNDKVFFASVRSGGSSQVFFMTLNRNSMMNW | Recombinant NAK protein displays enzymatic (kinase) activity
His and myc epitope tagged human NAK amino acids 1-337 (from pcDNA3.1.NAK(1-337)-Hm, expressed in HEK293 cells) (protein) MASDSPARSLDEIDLSALRDPAGIFELVELVGNGTYGQVYKGRHVKTGQLAAIKVMDVTGDEEEEIKQEINMLKKYSHHRNIATYYGAFIKKNPPGMDDQLWLVMEFCGAGSVTDLIKNTKGNTLKEEWIAYICREILRGLSHLHQHKVIHRDIKGQNVLLTENAEVKLVDFGVSAQLDRTVGRRNTFIGTPYWMAPEVIACDENPDATYDFKSDLWSLGITAIEMAEGAPPLCDMHPMRALFLIPRNPAPRLKSKKWSKKFQSFIESCLVKNHSQRPATEQLMKHPFIRDQPNERQVRIQLKDHIDRTKKKRGEKDETEYEYSGSEEEEEENDSGE | display increased kinase activity (FIG. 4b)
His and myc epitope tagged human NAK amino acids 1-529 (from pcDNA3.1.NAK(1-529)-Hm, expressed in HEK293 cells) (protein) MASDSPARSLDEIDLSALRDPAGIFELVELVGNGTYGQVYKGRHVKTGQLAAIKVMDVTGDEEEEIKQEINMLKKYSHHRNIATYYGAFIKKNPPGMDDQLWLVMEFCGAGSVTDLIKNTKGNTLKEEWIAYICREILRGLSHLHQHKVIHRDIKGQNVLLTENAEVKLVDFGVSAQLDRTVGRRNTFIGTPYWMAPEVIACDENPDATYDFKSDLWSLGITAIEMAEGAPPLCDMHPMRALFLIPRNPAPRLKSKKWSKKFQSFIESCLVKNHSQRPATEQLMKHPFIRDQPNERQVRIQLKDHIDRTKKKRGEKDETEYEYSGSEEEEEENDSGEPSSILNLPGESTLRRDFLRLQLANKERSEALRRQQLEQQQRENEEHKRQLLAERQKRIEEQKEQRRRLEEQQRREKELRKQQEREQRRHYEEQMRREEERRRAEHEQEYIRRQLEEEQRQLEILQQQLLHEQALLLEYKRKQLEEQRQAERLQRQLKQERDYLVSLQHQRQEQRPVEKKPLYHYKEGMSPSE | display increased kinase activity (FIG. 4b)
